Our source for the Kd, koff and kon values is patent publication US20140096274A1 (published 2014).

One assay addresses T1, human RANK-Fc (human, UniProt Q9Y6Q6 30-212).
T1 construct: also called hRANK-Fc; hRANK-FC; not shown: Fc part of the bought fusion; not described
T1 sequence (looked up): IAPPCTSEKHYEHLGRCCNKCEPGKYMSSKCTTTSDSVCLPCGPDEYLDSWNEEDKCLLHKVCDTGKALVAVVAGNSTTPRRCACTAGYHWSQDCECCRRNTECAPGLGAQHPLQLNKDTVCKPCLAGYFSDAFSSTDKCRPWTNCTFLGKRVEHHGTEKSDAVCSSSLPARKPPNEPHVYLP
Description: SPR (Biacore T100) single cycle kinetics, hRANK-Fc captured on protein A at 200 RU, 1:1 fit. The method, then: (§1) FIG. 35. Binding of dimeric human RANKL variants and human RANKL WT towards murine RANK at 37° C. (left) or human RANK (right) receptor. Receptors were captured at a level of 200 RU using a Protein A (Sigma) modified surface of a CM5 chip (Biacore GE Lifesciences). Receptor binding curves of purified human hD1.3 and hD2.3 variants and human RANKL WT (E. coli produced, R&D systems) were recorded in real time using the single cycle kinetics method (Biacore) using a Biacore T100 (Biacore, GE Lifescience). Ligands were injected in 5 consecutive injection from 1 nM to 100 nM. After subtracting the signal from the reference channel and buffer injections the resulting binding curves were fitted to a 1:1 interaction model using the BiaEvaluation software (Biacore GE Lifescience). Flow rate was 50 ul/min and protein A surface was regenerated using 10 mM Glycine pH 2 solution, murine RANK-Fc and human RANK-Fc were obtained from R&D systems. Running buffer was HBS-EP+ (Biacore GE Lifescience).

The target of another assay is T2, murine RANK-Fc (mouse, UniProt O35305 31-214).
T2 construct: also called mRANK-Fc; mRANK-FC; not shown: Fc part of the bought fusion; not described
T2 sequence (looked up): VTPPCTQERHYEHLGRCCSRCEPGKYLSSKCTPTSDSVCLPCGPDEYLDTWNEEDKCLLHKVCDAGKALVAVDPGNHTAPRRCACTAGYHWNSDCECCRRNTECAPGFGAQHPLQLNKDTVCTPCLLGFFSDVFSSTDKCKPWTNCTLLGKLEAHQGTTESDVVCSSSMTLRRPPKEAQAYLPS
Nature of the assay: SPR (Biacore T100) single cycle kinetics, mRANK-Fc captured on protein A at 200 RU, 1:1 fit. The method, then:
as §1
For orientation: SPR reads the build-up and loss of mass on a sensor chip optically.

B1: human RANKL heterodimeric variant hD1-3 (ligand)
chain 1: MGSSHHHHHHSQDPEAQPFAHLTINATDIPSGSHKVSLSSWYHDRGWADISNMTFSNGKLIVNQDGFYYLYANISFRHHETSGDLATEYLQLMVYVTKTSEKIPSSHTLMKGGSTKYWSGNSEFHYYSINVGGFFKLRSGEEISIEVSNPSLLDPDQDATYFGAFKVRDID
chain 2: MEAQPFAHLTINATDIPSGSHKVSLSSWYHDRGWAKISNMTFSNGKLIVNQDGYYYLYANICFRHHETSGDLATEYLQLMVYVTKTSEKIPSSHTLMDGGSTKYWSGNSEFHFYSINVGGYFKLRSGEEISIEVSNPSLLDPDQDATYFGAFKVRDID
notes: Heterodimer expressed in E. coli BLR (DE3); copies: 1 + 1
With B1, in the assay with human RANK-Fc, the Kd came to 0.345 nM, the koff amounted to 0.000275 s⁻¹ and the kon is 798000 M⁻¹ s⁻¹. In the assay with murine RANK-Fc, the Kd worked out at 0.211 nM, the koff was found to be 0.00019 s⁻¹ and the association rate constant (kon) was 899000 M⁻¹ s⁻¹.

B2: human RANKL heterodimeric variant hD2-3 (ligand)
chain 1: MGSSHHHHHHSQDPEAQPFAHLVINATDIPSGSHKVSLSSWYHDRGWAKISNMTFSNGKLIVNQDGFYYLYANISFRHHETSGKLATEYLQLMVYVTKTSEKIPSSHTLMKGGSTKYWSGNSEFHYYSINVGGFFKLRSGEEISIEVSNPSLLDPDQDATYFGAFKVRDID
chain 2: MEAQPFAHLVINATDIPSGSHKVSLSSWYHDRGWAKISNMTFSNGKLIVNQDGYYYLYANICFRHHETSGKLATEYLQLMVYVTKTSEKIPSSHTLMDGGSTKYWSGNSEFHFYSINVGGYFKLRSGEEISIEVSNPSLLDPDQDATYFGAFKVRDID
notes: Heterodimer expressed in E. coli BLR (DE3); also called hRANKL D2.3; copies: 1 + 1
Regarding B2, in the assay with human RANK-Fc, the affinity, expressed as Kd, was 0.0766 nM; the koff is 8.87e-05 s⁻¹; the kon was found to be 1.16e+06 M⁻¹ s⁻¹. Further, in the assay with murine RANK-Fc, the Kd turned out to be 0.0504 nM, the koff was determined as 8.32e-05 s⁻¹ and the kon came out at 1.65e+06 M⁻¹ s⁻¹.

B3: trimeric human RANKL WT (E. coli produced, R&D Systems) (ligand, UniProt O14788 140-317, looked up)
chain: IRAEKAMVDGSWLDLAKRSKLEAQPFAHLTINATDIPSGSHKVSLSSWYHDRGWAKISNMTFSNGKLIVNQDGFYYLYANICFRHHETSGDLATEYLQLMVYVTKTSIKIPSSHTLMKGGSTKYWSGNSEFHFYSINVGGFFKLRSGEEISIEVSNPSLLDPDQDATYFGAFKVRDID
notes: Bought protein; also called hWT
As to B3, in the assay with human RANK-Fc, the Kd was found to be 0.267 nM, the koff was determined as 0.00023 s⁻¹ and the kon is 861000 M⁻¹ s⁻¹. Further, in the assay with murine RANK-Fc, the Kd is 0.136 nM, the koff stood at 0.000142 s⁻¹ and the kon amounted to 1.04e+06 M⁻¹ s⁻¹.

In general, Kd refers to the equilibrium constant for the complex coming apart. Low values mean tighter binding, high ones weaker binding. What is called koff is a measure of how fast the partners let go of each other. Low readings indicate a long-lived complex, high ones a short-lived complex. Broadly, the kon is a measure of how fast the partners come together.
